{
  "source": "paper PMC6451096",
  "about": "“Molecular basis for transfer RNA recognition by the double-stranded RNA-binding domain of human dihydrouridine synthase 2”",
  "binders": {"B1": {"name": "tRNAPhe transcript (structured_RNA)", "RNA": "GCGGAUUUAGCUCAGUUGGGAGAGCGCCAGACUGAAGAUCUGGAGGUCCUGUGUUCGAUCCACAGAAUUCGCACCA"}, "B2": {"name": "11-nt palindromic dsRNA (dsRNA)", "RNA 1": "CGAACUUCGCG", "RNA 2": "CGAACUUCGCG"}, "B3": {"name": "human tRNALys3 (structured_RNA)", "RNA": "GCCCGGAUAGCUCAGUCGGUAGAGCAUCAGACUUUUAAUCUGAGGGUCCAGGGUUCAAGUCCCUGUUCGGGCGCCA", "modifications": "modified in vivo in E. coli (Psi39 mentioned)"}, "B4": {"name": "tRNAPhe-deltaACS transcript (structured_RNA)", "RNA": "GCGGAUUUAGCUCAGUUGGGAGAGCGCCGAAGGGAGGUCCUGUGUUCGAUCCACAGAAUUCGCACCA"}},
  "key": {"hDus2 full length [1]": {"biological_target": "T1, hDus2 full length (Homo sapiens, UniProt Q9NX74 1-493)", "T1 sequence (Q9NX74 whole entry)": "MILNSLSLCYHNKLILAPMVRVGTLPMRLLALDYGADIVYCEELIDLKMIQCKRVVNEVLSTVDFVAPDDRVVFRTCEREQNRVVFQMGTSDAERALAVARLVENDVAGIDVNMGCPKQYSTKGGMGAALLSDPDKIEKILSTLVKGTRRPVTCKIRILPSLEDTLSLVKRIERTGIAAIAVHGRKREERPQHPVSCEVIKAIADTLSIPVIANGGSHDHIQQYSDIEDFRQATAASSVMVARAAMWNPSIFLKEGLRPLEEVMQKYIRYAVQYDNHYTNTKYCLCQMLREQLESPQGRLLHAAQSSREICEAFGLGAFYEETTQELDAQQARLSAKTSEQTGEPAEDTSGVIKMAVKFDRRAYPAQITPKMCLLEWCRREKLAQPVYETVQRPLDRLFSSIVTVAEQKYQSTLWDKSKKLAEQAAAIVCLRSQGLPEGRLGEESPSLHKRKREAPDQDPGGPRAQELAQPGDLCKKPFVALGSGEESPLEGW", "assay": "EMSA; same affinity as for deltaACS; value only in Fig S12e; EMSA: 50 mM Tris-HCl pH 8, 10% glycerol, 5 mM DTT, 150 mM ammonium acetate, 1 uM tRNALys3, 20 min room temperature; 6% native PAGE at 4 C", "conditions": "protein: recombinant; tRNA fold"}, "hDus2 dsRBD R361A": {"biological_target": "T2, hDus2 dsRBD R361A (Homo sapiens, UniProt Q9NX74 339-451, R361A)", "T2 sequence": "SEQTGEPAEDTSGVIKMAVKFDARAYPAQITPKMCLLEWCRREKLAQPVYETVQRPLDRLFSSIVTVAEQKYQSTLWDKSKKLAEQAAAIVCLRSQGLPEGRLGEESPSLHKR", "assay": "EMSA; EMSA: 50 mM Tris-HCl pH 8, 10% glycerol, 5 mM DTT, 150 mM ammonium acetate, 1 uM tRNALys3, 20 min room temperature; 6% native PAGE at 4 C", "conditions": "protein: recombinant"}, "hDus2 dsRBD R361A-R362A [2]": {"biological_target": "T3, hDus2 dsRBD R361A-R362A (Homo sapiens, UniProt Q9NX74 339-451, R361A;R362A)", "T3 sequence": "T2 sequence with R24A", "assay": "EMSA; EMSA: 50 mM Tris-HCl pH 8, 10% glycerol, 5 mM DTT, 150 mM ammonium acetate, 1 uM tRNALys3, 20 min room temperature; 6% native PAGE at 4 C", "conditions": "protein: recombinant"}, "hDus2 dsRBD WT [3]": {"biological_target": "T4, hDus2 dsRBD WT (Homo sapiens, UniProt Q9NX74 339-451)", "T4 sequence": "T2 sequence with A23R", "assay": "X-ray crystallography; 20 mM MgCl2 in reservoir; EMSA: 50 mM Tris-HCl pH 8, 10% glycerol, 5 mM DTT, 150 mM ammonium acetate, 1 uM tRNALys3, 20 min room temperature; 6% native PAGE at 4 C", "conditions": "protein: recombinant"}, "hDus2 dsRBD K419A-K420A": {"biological_target": "T5, hDus2 dsRBD K419A-K420A (Homo sapiens, UniProt Q9NX74 339-451, K419A;K420A)", "T5 sequence": "T2 sequence with A23R, K81A, K82A", "assay": "EMSA; EMSA: 50 mM Tris-HCl pH 8, 10% glycerol, 5 mM DTT, 150 mM ammonium acetate, 1 uM tRNALys3, 20 min room temperature; 6% native PAGE at 4 C", "conditions": "protein: recombinant; label: 15N for tRNA-observed NMR; tRNA fold"}, "hDus2 dsRBD R361A-R362A [4]": {"biological_target": "T3, hDus2 dsRBD R361A-R362A", "assay": "EMSA; EMSA: 50 mM Tris-HCl pH 8, 10% glycerol, 5 mM DTT, 150 mM ammonium acetate, 1 uM tRNALys3, 20 min room temperature; 6% native PAGE at 4 C", "conditions": "protein: recombinant; label: 15N for tRNA-observed NMR; tRNA fold"}, "hDus2 dsRBD K420A": {"biological_target": "T6, hDus2 dsRBD K420A (Homo sapiens, UniProt Q9NX74 339-451, K420A)", "T6 sequence": "T2 sequence with A23R, K82A", "assay": "EMSA; EMSA: 50 mM Tris-HCl pH 8, 10% glycerol, 5 mM DTT, 150 mM ammonium acetate, 1 uM tRNALys3, 20 min room temperature; 6% native PAGE at 4 C", "conditions": "protein: recombinant; label: 15N for tRNA-observed NMR; tRNA fold"}, "hDus2 dsRBD R397A": {"biological_target": "T7, hDus2 dsRBD R397A (Homo sapiens, UniProt Q9NX74 339-451, R397A)", "T7 sequence": "T2 sequence with A23R, R59A", "assay": "EMSA; EMSA: 50 mM Tris-HCl pH 8, 10% glycerol, 5 mM DTT, 150 mM ammonium acetate, 1 uM tRNALys3, 20 min room temperature; 6% native PAGE at 4 C", "conditions": "protein: recombinant; label: 15N for tRNA-observed NMR; tRNA fold"}, "hDus2 dsRBD K371A": {"biological_target": "T8, hDus2 dsRBD K371A (Homo sapiens, UniProt Q9NX74 339-451, K371A)", "T8 sequence": "T2 sequence with A23R, K33A", "assay": "EMSA; EMSA: 50 mM Tris-HCl pH 8, 10% glycerol, 5 mM DTT, 150 mM ammonium acetate, 1 uM tRNALys3, 20 min room temperature; 6% native PAGE at 4 C", "conditions": "protein: recombinant; label: 15N for tRNA-observed NMR; tRNA fold"}, "hDus2 dsRBD K419A": {"biological_target": "T9, hDus2 dsRBD K419A (Homo sapiens, UniProt Q9NX74 339-451, K419A)", "T9 sequence": "T2 sequence with A23R, K81A", "assay": "EMSA; EMSA: 50 mM Tris-HCl pH 8, 10% glycerol, 5 mM DTT, 150 mM ammonium acetate, 1 uM tRNALys3, 20 min room temperature; 6% native PAGE at 4 C", "conditions": "protein: recombinant; label: 15N for tRNA-observed NMR; tRNA fold"}, "hDus2 full length [5]": {"biological_target": "T1, hDus2 full length", "assay": "SEC-MALLS; 1:1 protein:RNA; EMSA: 50 mM Tris-HCl pH 8, 10% glycerol, 5 mM DTT, 150 mM ammonium acetate, 1 uM tRNALys3, 20 min room temperature; 6% native PAGE at 4 C", "conditions": "protein: recombinant; label: 15N for tRNA-observed NMR; tRNA fold"}, "hDus2 dsRBD R362A": {"biological_target": "T10, hDus2 dsRBD R362A (Homo sapiens, UniProt Q9NX74 339-451, R362A)", "T10 sequence": "T2 sequence with A23R, R24A", "assay": "EMSA; no impact of mutation; EMSA: 50 mM Tris-HCl pH 8, 10% glycerol, 5 mM DTT, 150 mM ammonium acetate, 1 uM tRNALys3, 20 min room temperature; 6% native PAGE at 4 C", "conditions": "protein: recombinant; label: 15N for tRNA-observed NMR; tRNA fold"}, "hDus2 dsRBD WT [6]": {"biological_target": "T4, hDus2 dsRBD WT", "assay": "EMSA; apparent Kd shown only in histogram; EMSA: 50 mM Tris-HCl pH 8, 10% glycerol, 5 mM DTT, 150 mM ammonium acetate, 1 uM tRNALys3, 20 min room temperature; 6% native PAGE at 4 C", "conditions": "protein: recombinant; label: 15N for tRNA-observed NMR; tRNA fold"}, "hDus2 full length [7]": {"biological_target": "T1, hDus2 full length", "assay": "EMSA; same affinity as for full tRNA; value only in Fig S12e; EMSA: 50 mM Tris-HCl pH 8, 10% glycerol, 5 mM DTT, 150 mM ammonium acetate, 1 uM tRNALys3, 20 min room temperature; 6% native PAGE at 4 C", "conditions": "protein: recombinant; tRNA fold, anticodon stem removed"}},
  "note": "Residue numbers refer to the chain shown, from its start.",
  "data": [
    {"binder": "B1", "values": [
      {"measurement": "binding result", "setting": "hDus2 full length [1]", "value": "binds"}
    ]},
    {"binder": "B2", "values": [
      {"measurement": "binding signal", "setting": "hDus2 dsRBD R361A", "value": "~3.7 fold lower affinity than same mutant for tRNA"},
      {"measurement": "binding signal", "setting": "hDus2 dsRBD R361A-R362A [2]", "value": "~1 affinity relative to same mutant for tRNA (similar)"},
      {"measurement": "binding result", "setting": "hDus2 dsRBD WT [3]", "value": "binds"}
    ]},
    {"binder": "B3", "values": [
      {"measurement": "binding signal", "setting": "hDus2 dsRBD K419A-K420A", "value": "~17 fold lower affinity than WT"},
      {"measurement": "binding signal", "setting": "hDus2 dsRBD R361A-R362A [4]", "value": "~6 fold lower affinity than WT"},
      {"measurement": "binding signal", "setting": "hDus2 dsRBD K420A", "value": "> 4 fold lower affinity than WT"},
      {"measurement": "binding signal", "setting": "hDus2 dsRBD R397A", "value": "~2 fold lower affinity than WT"},
      {"measurement": "binding signal", "setting": "hDus2 dsRBD K371A", "value": "~8 fold lower affinity than WT"},
      {"measurement": "binding signal", "setting": "hDus2 dsRBD K419A", "value": "> 4 fold lower affinity than WT"},
      {"measurement": "binding result", "setting": "hDus2 full length [5]", "value": "binds"},
      {"measurement": "binding result", "setting": "hDus2 dsRBD R362A", "value": "binds"},
      {"measurement": "binding result", "setting": "hDus2 dsRBD WT [6]", "value": "binds"}
    ]},
    {"binder": "B4", "values": [
      {"measurement": "binding result", "setting": "hDus2 full length [7]", "value": "binds"}
    ]}
  ]
}
